Reference: patent US20250009876A1 (H LUNDBECK A S, published 2025)
Where two headings read alike, the source gives them in different places.

T1: PAC1-R on PAC1-R-expressing PC-12 cells (UniProt P32215 20-523)
T1 construct: whole, on cells; also called PAC1 receptor
T1 sequence (looked up): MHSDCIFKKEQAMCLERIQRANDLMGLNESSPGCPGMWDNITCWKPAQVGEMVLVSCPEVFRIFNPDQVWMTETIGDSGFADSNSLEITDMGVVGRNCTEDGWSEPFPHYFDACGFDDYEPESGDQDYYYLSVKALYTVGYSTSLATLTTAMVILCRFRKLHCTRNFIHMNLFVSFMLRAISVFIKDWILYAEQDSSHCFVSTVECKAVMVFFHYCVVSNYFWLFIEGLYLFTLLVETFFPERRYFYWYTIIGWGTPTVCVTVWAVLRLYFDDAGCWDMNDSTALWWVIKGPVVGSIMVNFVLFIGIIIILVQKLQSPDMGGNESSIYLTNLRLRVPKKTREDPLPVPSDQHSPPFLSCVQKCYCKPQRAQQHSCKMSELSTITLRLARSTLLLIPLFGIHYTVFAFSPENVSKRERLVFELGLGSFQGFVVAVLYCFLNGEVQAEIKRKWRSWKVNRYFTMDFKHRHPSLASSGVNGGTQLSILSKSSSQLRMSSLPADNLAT

T2: VIP (Vasoactive Intestinal Peptide) (human)
T2 construct: also called human VIP
T2 peptide: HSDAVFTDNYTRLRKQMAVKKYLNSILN

T3: PACAP38 (Pituitary Adenylate Cyclase-Activating Polypeptide, 38 amino acids) (human, not fully specified; the C-terminal lysine is amidated)
T3 construct: In the HTRF and PC-12 cell assays the peptide was N-terminally or C-terminally biotinylated; unlabelled in SPR; also called human PACAP38; huPACAP (1-38)
T3 peptide: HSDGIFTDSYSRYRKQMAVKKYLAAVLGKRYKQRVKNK

T4: PACAP27 (Pituitary Adenylate Cyclase-Activating Polypeptide, 27 amino acids) (human, the C-terminal leucine is amidated)
T4 construct: also called human PACAP27
T4 peptide: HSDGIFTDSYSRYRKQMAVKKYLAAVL


Columns and labels:
[1] = target: T1, PAC1-R on PAC1-R-expressing PC-12 cells; assay: cell surface binding assay (DELFIA TRF): antibody pre-incubated with PACAP38, added to PAC1-R-expressing PC-12 cells, detected with Eu anti-human IgG
Procedure: Cells were initially seeded at 1×10⁵ cells/well in a solution of complete RPMI (“cRPMI”: RPMI medium supplemented with 10% sterile heat-inactivated FBS and 1% sterile antibiotic/antimycotic)+10% FBS, and the plates were allowed to incubate overnight at 37° C. On the day of the binding assay, antibodies at an initial concentration of 15 μg/ml were diluted at a 1:3 ratio in DELFIA® binding buffer (50 mM Tris, 150 mM NaCl, 0.1% azide, 2% horse serum) (Perkin-Elmer, Waltham, MA) to a total volume of 60 μL in a separate 96 well round bottom plate. PACAP38 was prepared for the binding assay by diluting it in DELFIA® binding buffer to a concentration of 200 nM, and then 60 μl of the diluted PACAP38 was added to each of the antibody-containing wells to form antibody: antigen complexes. Following addition of PACAP38, the antibody: antigen complexes were incubated at room temperature on a shaker for 1 hour. Separately, the PC-12 cells were prepared for addition of antibody: antigen complexes by washing the cells two times with DELFIA® wash buffer (50 mM Tris, 150 mM NaCl, 0.1% Azide) (Perkin-Elmer, Waltham, MA). After washing the cells two times and following the 1 hour room temperature incubation of the antibody: antigen complexes, 50 μl of the antibody: antigen complex was added to each well containing cells. The mixtures of cells and antibody: antigen complexes were then incubated for 30 minutes at room temperature. Following this 30 minute incubation, each mixture was washed two times with DELFIA® wash buffer (Perkin-Elmer, Waltham, MA).
DELFIA® Europium labeled anti-human IgG detection reagent (Cat #1244-330, Perkin-Elmer, Waltham, MA) was diluted to a concentration of 300 ng/ml in DELFIA® Binding Buffer. Following dilution, 50 μl of the anti-human IgG detection reagent was added to each well containing cells, and a 30 minute incubation at room temperature followed this addition of IgG detection reagent. After completion of the 30 minute room temperature incubation, the cells were then washed two times with DELFIA® wash buffer. Next, 50 μl of DELFIA® Enhancement Solution (Cat #1244-105, Perkin-Elmer, Waltham, MA) was added to each well containing cells for a final 15 minute room temperature incubation with shaking. The plates were then read (TRF, excitation 330 nm, emission 620 nm) on a SPECTRAMAX® (Molecular Devices, Sunnyvale, CA) plate reader.

[2] = target: T2, VIP (Vasoactive Intestinal Peptide); assay: SPR (ProteOn XPR36), antibody amine-coupled, peptide analyte, 1:1 Langmuir fit
[3] = target: T3, PACAP38 (Pituitary Adenylate …); assay: as above
Procedure: (§1) Binding affinities of monoclonal antibodies for human PACAP were estimated using SPR on the PROTEON™ XPR36 (Bio-Rad, Hercules, CA). Antibody was immobilized to the surface of general amine coupling (“GLC” or “GLM”) Chips (Bio-Rad, Hercules, CA). […] Antigen (ranging from 1.23 nM to 100 nM) was typically run sequentially with association times of 2-4 minutes and dissociation times of 3-120 minutes grouped with the PROTEON™ Manager Software (v3.1.0.6 (Bio-Rad, Hercules, CA)) and fitted using a 1:1 Langmuir binding model. Surfaces were regenerated between analyte queries using 0.85% Phosphoric Acid.

[4] = target: T4, PACAP27 (Pituitary Adenylate …); assay: as above
Procedure: as §1

[5] = target: T3, PACAP38 (Pituitary Adenylate …); assay: cell-based or functional assay
[6] = target: T4, PACAP27 (Pituitary Adenylate …); assay: cell-based or functional assay
[7] = target: T3, PACAP38 (Pituitary Adenylate …); assay: cell-based or functional assay
[8] = target: T3, PACAP38 (Pituitary Adenylate …); assay: cell-based or functional assay
[9] = target: T2, VIP (Vasoactive Intestinal Peptide); assay: SPR (ProteOn XPR36), antibody amine-coupled, peptide analyte, 1:1 Langmuir fit
[10] = target: T3, PACAP38 (Pituitary Adenylate …); assay: as above
Procedure: (§2) Binding affinities of monoclonal antibodies for human PACAP were estimated using SPR on the PROTEON™ XPR36 (Bio-Rad, Hercules, CA). Antibody was immobilized to the surface of general amine coupling (“GLC″ or “GLM”) Chips (Bio-Rad, Hercules, CA). […] Antigen (ranging from 1.23 nM to 100 nM) was typically run sequentially with association times of 2-4 minutes and dissociation times of 3-120 minutes grouped with the PROTEON™ Manager Software (v3.1.0.6 (Bio-Rad, Hercules, CA)) and fitted using a 1:1 Langmuir binding model. Surfaces were regenerated between analyte queries using 0.85% Phosphoric Acid, 0.5% SDS, and 0.1N NaOH.

[11] = target: T4, PACAP27 (Pituitary Adenylate …); assay: as above
Procedure: as §2

Binder | binding result [1] | Kd [2] | koff [2] | kon [2] | Kd [3] | koff [3] | kon [3] | Kd [4] | koff [4] | kon [4] | Inhibition of 0.1 nM PACAP38-induced PAC1-R mediated cAMP increase IC50 (pM) [5] | Inhibition of 1 nM PACAP27-induced PAC1-R mediated cAMP increase IC50 (pM) [6] | Inhibition of 1 nM PACAP38-induced human VPAC2-R mediated cAMP increase IC50 (pM) [7] | Inhibition of 5 nM PACAP38-induced human VPAC1-R mediated cAMP increase IC50 (pM) [8] | Kd [9] | koff [9] | kon [9] | Kd [10] | koff [10] | kon [10] | also measured
Ab23 (antibody, human IgG1, kappa, N297A, V domains shown, Full-length anti-PACAP antibody; rabbit/human chimeric) VH: QSVEESGGRLVTPGTPLTLTCTVSGFSLNNYAMSWVRQAPGKGLEWIGIMGVNDITYYASWAKGRFTISKTSTTVDLKMTSLTTEDTATYFCTREIRDDGDSSDKLWGPGTLVTVSS VL: AIKMTQTPSSVSAAVGGTVTINCQASEDIYTNLAWYQQKPGQPPNLLIYDASDLASGVPSRFSGSGDGTQFTLTISAVQCEDAATYYCQGVAWSSNTGYGSAFGGGTEVVVKR | no binding (tested: about 70 nM) | – | – | – | – | – | – | – | – | – | – | – | – | – | – | – | – | – | – | – | –
Ab10.H2 (antibody, human IgG1, kappa, N297A, Full-length humanized variant of Ab10) heavy: not shown light: AVLTQSPSTLSASVGDRVTITCQSSESVYGNYLAWFQQKPGKAPKFLIYEASKLESGVPSRFSGSGSGTEFTLTISSLQPDDFATYYCAGGDISEGVAFGGGTKVEIKRTVAAPSVFIFPPSDEQLKSGTASVVCLLNNFYPREAKVQWKVDNALQSGNSQESVTEQDSKDSTYSLSSTLTLSKADYEKHKVYACEVTHQGLSSPVTKSFNRGEC | no binding (tested: about 70 nM) | 230 nM | 0.046 s⁻¹ | 200000 M⁻¹ s⁻¹ | 0.022 nM | 1.4e-05 s⁻¹ | 630000 M⁻¹ s⁻¹ | 0.078 nM | 1.7e-05 s⁻¹ | 210000 M⁻¹ s⁻¹ | 21.3 pM | 466 pM | – | – | – | – | – | – | – | – | –
Ab10.H5 (antibody, human IgG1, kappa, N297A, Full-length humanized variant of Ab10) heavy: not shown light: QLTQSPSTLSASVGDRVTITCQSSESVYGNYLAWFQQKPGKAPKFLIYEASKLESGVPSRFSGSGSGTEFTLTISSLQPDDFATYYCAGGDISEGVAFGGGTKVEIKRTVAAPSVFIFPPSDEQLKSGTASVVCLLNNFYPREAKVQWKVDNALQSGNSQESVTEQDSKDSTYSLSSTLTLSKADYEKHKVYACEVTHQGLSSPVTKSFNRGEC | no binding (tested: about 70 nM) | – | – | – | – | – | – | – | – | – | 22.7 pM | 733 pM | – | – | – | – | – | – | – | – | –
Ab10.H4 (antibody, human IgG1, kappa, N297A, Full-length humanized variant of Ab10) heavy: not shown light: DIVLTQSPSTLSASVGDRVTITCQSSESVYGNYLAWFQQKPGKAPKFLIYEASKLESGVPSRFSGSGSGTEFTLTISSLQPDDFATYYCAGGDISEGVAFGGGTKVEIKRTVAAPSVFIFPPSDEQLKSGTASVVCLLNNFYPREAKVQWKVDNALQSGNSQESVTEQDSKDSTYSLSSTLTLSKADYEKHKVYACEVTHQGLSSPVTKSFNRGEC | no binding (tested: about 70 nM) | 98 nM | 0.015 s⁻¹ | 150000 M⁻¹ s⁻¹ | ≤ 0.019 nM | ≤ 1e-05 s⁻¹ | 530000 M⁻¹ s⁻¹ | 0.093 nM | 1.7e-05 s⁻¹ | 190000 M⁻¹ s⁻¹ | 22.8 pM | 329 pM | – | – | – | – | – | – | – | – | –
Ab21.H4 (antibody, human IgG1, kappa, N297A, Full-length humanized variant of Ab21) heavy: not shown light: DIVLTQSPSTLSASVGDRVTITCKSSESVYGDYLAWFQQKPGKAPKQLIYDASTLASGVPSRFSGSGSGTEFTLTISSLQPDDFATYYCAGGYVSAGVAFGGGTKVEIKRTVAAPSVFIFPPSDEQLKSGTASVVCLLNNFYPREAKVQWKVDNALQSGNSQESVTEQDSKDSTYSLSSTLTLSKADYEKHKVYACEVTHQGLSSPVTKSFNRGEC | – | – | – | – | – | – | – | – | – | – | 83.4 pM | 275 pM | 2880 pM | 2830 pM | 523 nM | 0.0289 s⁻¹ | 55300 M⁻¹ s⁻¹ | ≤ 0.0238 nM | ≤ 1e-05 s⁻¹ | 420000 M⁻¹ s⁻¹ | Kd [11]: ≤ 0.0351 nM; koff [11]: ≤ 1e-05 s⁻¹; kon [11]: 285000 M⁻¹ s⁻¹
Ab21.H3 (antibody, human IgG1, kappa, N297A, Full-length humanized variant of Ab21) heavy: not shown light: DIQLTQSPSTLSASVGDRVTITCKSSESVYGDYLAWFQQKPGKAPKQLIYDASTLASGVPSRFSGSGSGTEFTLTISSLQPDDFATYYCAGGYVSAGVAFGGGTKVEIKRTVAAPSVFIFPPSDEQLKSGTASVVCLLNNFYPREAKVQWKVDNALQSGNSQESVTEQDSKDSTYSLSSTLTLSKADYEKHKVYACEVTHQGLSSPVTKSFNRGEC | – | – | – | – | – | – | – | – | – | – | 65.3 pM | 318 pM | 1530 pM | 2520 pM | 424 nM | 0.0249 s⁻¹ | 58700 M⁻¹ s⁻¹ | ≤ 0.0223 nM | ≤ 1e-05 s⁻¹ | 449000 M⁻¹ s⁻¹ | Kd [11]: ≤ 0.0311 nM; koff [11]: ≤ 1e-05 s⁻¹; kon [11]: 322000 M⁻¹ s⁻¹
